Here are results for one molecule from paper PMC5927468, “A noncanonical role for dynamin-1 in regulating early stages of clathrin-mediated endocytosis in non-neuronal cells” (PLoS Biology, 2018).

Substitutions are numbered along the chain they refer to.

In test [1] the target is T1, Dyn1a^WT-eGFP (UniProt Q05193 1-864).
T1 construct: dynamin-1 cDNA, C-terminal splice variant "a" (Dyn1a), in the retroviral vector pMIEG; also called Dyn1a-eGFP; Dyn1-eGFP; source: A549 Dyn1^KO cells, retroviral transduction, in lysate (post-nuclear fraction); not shown: eGFP, C-terminal, kept
T1 sequence (looked up): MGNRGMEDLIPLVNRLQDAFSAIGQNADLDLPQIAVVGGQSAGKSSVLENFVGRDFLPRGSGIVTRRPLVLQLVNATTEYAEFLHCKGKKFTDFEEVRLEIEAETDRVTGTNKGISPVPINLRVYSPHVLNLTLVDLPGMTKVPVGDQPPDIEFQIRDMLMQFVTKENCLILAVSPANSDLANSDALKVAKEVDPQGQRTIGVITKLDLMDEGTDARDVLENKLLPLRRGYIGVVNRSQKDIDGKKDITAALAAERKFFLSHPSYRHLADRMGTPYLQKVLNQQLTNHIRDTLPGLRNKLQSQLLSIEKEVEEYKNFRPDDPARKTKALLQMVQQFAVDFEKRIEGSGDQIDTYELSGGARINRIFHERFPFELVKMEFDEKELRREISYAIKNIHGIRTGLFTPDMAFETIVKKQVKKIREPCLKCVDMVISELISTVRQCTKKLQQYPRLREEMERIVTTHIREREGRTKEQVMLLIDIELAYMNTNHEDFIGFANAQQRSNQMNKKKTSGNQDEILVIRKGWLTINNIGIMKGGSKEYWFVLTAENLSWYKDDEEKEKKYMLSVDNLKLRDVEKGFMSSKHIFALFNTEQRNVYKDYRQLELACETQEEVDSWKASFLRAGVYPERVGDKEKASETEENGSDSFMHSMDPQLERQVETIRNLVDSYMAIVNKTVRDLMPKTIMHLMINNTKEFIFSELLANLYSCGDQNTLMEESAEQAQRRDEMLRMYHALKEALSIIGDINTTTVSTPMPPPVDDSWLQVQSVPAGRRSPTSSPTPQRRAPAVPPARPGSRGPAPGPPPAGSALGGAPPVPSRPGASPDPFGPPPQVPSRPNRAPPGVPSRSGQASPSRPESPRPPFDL
The test is described as follows: co-IP; GFP-nAb agarose, 0.5 mg A549 post-nuclear fraction, 2 h at 4 °C; beads washed with buffer 3 (0.5% Triton X-100, 25 mM HEPES, 150 mM KCl, 1 mM MgCl2, 2 mM EGTA, pH 7.4); immunoblot. As to conditions: partners not purified. (A western blot detects proteins with antibodies after separation by electrophoresis.)

The target in test [2] is T2, Dyn1a^S774/8A-eGFP (UniProt Q05193 1-864, S774/8A | S774/8A).
T2 construct: dynamin-1 cDNA, C-terminal splice variant "a" (Dyn1a), in the retroviral vector pMIEG, with S774 and S778 changed to alanine; also called Dyn1^S774/8A-eGFP; Dyn1^S774/8A; source: A549 Dyn1^KO cells, retroviral transduction, in lysate (post-nuclear fraction); not shown: eGFP, C-terminal, kept
T2 sequence (looked up): T1 sequence (looked up) with S774A, S778A
The test is described as above. As to conditions: partners not purified.

B1: sorting nexin 9, endogenous in A549 cells (natural protein, human (endogenous in A549), UniProt Q9Y5X1 1-595, looked up)
chain: MATKARVMYDFAAEPGNNELTVNEGEIITITNPDVGGGWLEGRNIKGERGLVPTDYVEILPSDGKDQFSCGNSVADQAFLDSLSASTAQASSSAASNNHQVGSGNDPWSAWSASKSGNWESSEGWGAQPEGAGAQRNTNTPNNWDTAFGHPQAYQGPATGDDDDWDEDWDGPKSSSYFKDSESADAGGAQRGNSRASSSSMKIPLNKFPGFAKPGTEQYLLAKQLAKPKEKIPIIVGDYGPMWVYPTSTFDCVVADPRKGSKMYGLKSYIEYQLTPTNTNRSVNHRYKHFDWLYERLLVKFGSAIPIPSLPDKQVTGRFEEEFIKMRMERLQAWMTRMCRHPVISESEVFQQFLNFRDEKEWKTGKRKAERDELAGVMIFSTMEPEAPDLDLVEIEQKCEAVGKFTKAMDDGVKELLTVGQEHWKRCTGPLPKEYQKIGKALQSLATVFSSSGYQGETDLNDAITEAGKTYEEIASLVAEQPKKDLHFLMECNHEYKGFLGCFPDIIGTHKGAIEKVKESDKLVATSKITLQDKQNMVKRVSIMSYALQAEMNHFHSNRIYDYNSVIRLYLEQQVQFYETIAEKLRQALSRFPVM
notes: sorting nexin 9, endogenous; also called SNX9; source: endogenous, A549 (Dyn1^KO or Dyn2^KO, reconstituted) lysate
Turning to B1, in test [1], the “ratio of SNX9 binding to Dyn1 versus Dyn2” value was found to be 1.7. Moreover, the “ratio of SNX9 binding to Dyn1^S774/8A versus Dyn1^WT” value in test [2] turned out to be 3.6.
